Results: article PMC10716581, “Fanconi anemia-associated mutation in RAD51 compromises the coordinated action of DNA-binding and ATPase activities”

Target: RAD51 WT (human, UniProt Q06609 1-339)
Test: EMSA; 2 mM ATP, 10 mM Mg2+; 20 mM Hepes-NaOH pH 7.5, 0.1 mg/ml BSA, 1 mM DTT, 10 mM MgCl2, 150 mM KCl, 2 mM ATP or AMP-PNP or no nucleotide, 2.7 uM (nt) DNA, 37 C 10 min; 8% native PAGE in 1x TBE
Settings: protein: recombinant; tags: N-terminal His-tag removed with thrombin; chain copies: 8; label: 5'-Cy5 on strand 1; blunt

Sequence of RAD51 WT (Q06609 whole entry): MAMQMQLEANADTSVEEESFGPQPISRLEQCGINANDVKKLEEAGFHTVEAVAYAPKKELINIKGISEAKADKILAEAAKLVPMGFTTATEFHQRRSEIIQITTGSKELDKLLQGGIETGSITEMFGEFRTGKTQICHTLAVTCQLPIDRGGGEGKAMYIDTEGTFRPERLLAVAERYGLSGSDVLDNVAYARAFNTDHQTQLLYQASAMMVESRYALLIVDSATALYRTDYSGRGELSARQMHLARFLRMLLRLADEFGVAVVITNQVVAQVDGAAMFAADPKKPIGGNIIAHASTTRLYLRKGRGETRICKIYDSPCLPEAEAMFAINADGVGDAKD

B1: Cy5-OL4/OL5 40-mer (dsDNA)
DNA 1: TAATACAAAATAAGTAAATGAATAAACAGAGAAAATAAAG
DNA 2: CTTTATTTTCTCTGTTTATTCATTTACTTATTTTGTATTA
- binding result: binds
